Experimental data from US9029508 (dated 2015).
Several values for one entry are separate records, joined by “and”; a condition that tells them apart may be missing. Identical values can stand only once. Like-named read-outs stand apart in the source and are kept apart here.

T1: PlGF (human, UniProt P49763)
T1 chain: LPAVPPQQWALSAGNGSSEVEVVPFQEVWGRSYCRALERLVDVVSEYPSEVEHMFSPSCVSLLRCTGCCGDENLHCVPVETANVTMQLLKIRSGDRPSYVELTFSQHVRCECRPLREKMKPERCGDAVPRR


What was measured:
PlGF [1] = molecular target: T1, PlGF; assay: SPR
PlGF [2] = molecular target: T1, PlGF; assay: ELISA
HGF [3] = molecular target: T2, HGF (human, UniProt P14210); assay: SPR
HGF [4] = molecular target: T2, HGF; assay: ELISA
HGF [5] = molecular target: T2, HGF; assay: competition
IGF2 [6] = molecular target: T3, IGF2 (human, UniProt P01344); assay: SPR
IGF1 [7] = molecular target: T4, IGF1 (human, UniProt P05019); assay: ELISA
IGF2 [8] = molecular target: T3, IGF2; assay: ELISA
IGF2 [9] = molecular target: T3, IGF2; assay: ELISA; remark: listed apart in the source
IGF1 [10] = molecular target: T4, IGF1; assay: ELISA; remark: listed apart in the source
ErbB3 = ErbB3 (human, UniProt P21860); assay: ELISA
DLL4 [11] = molecular target: T5, DLL4 (human, UniProt Q9NR61); assay: ELISA
DLL4 [12] = molecular target: T5, DLL4; assay: competition

T2 sequence (P14210 32-728): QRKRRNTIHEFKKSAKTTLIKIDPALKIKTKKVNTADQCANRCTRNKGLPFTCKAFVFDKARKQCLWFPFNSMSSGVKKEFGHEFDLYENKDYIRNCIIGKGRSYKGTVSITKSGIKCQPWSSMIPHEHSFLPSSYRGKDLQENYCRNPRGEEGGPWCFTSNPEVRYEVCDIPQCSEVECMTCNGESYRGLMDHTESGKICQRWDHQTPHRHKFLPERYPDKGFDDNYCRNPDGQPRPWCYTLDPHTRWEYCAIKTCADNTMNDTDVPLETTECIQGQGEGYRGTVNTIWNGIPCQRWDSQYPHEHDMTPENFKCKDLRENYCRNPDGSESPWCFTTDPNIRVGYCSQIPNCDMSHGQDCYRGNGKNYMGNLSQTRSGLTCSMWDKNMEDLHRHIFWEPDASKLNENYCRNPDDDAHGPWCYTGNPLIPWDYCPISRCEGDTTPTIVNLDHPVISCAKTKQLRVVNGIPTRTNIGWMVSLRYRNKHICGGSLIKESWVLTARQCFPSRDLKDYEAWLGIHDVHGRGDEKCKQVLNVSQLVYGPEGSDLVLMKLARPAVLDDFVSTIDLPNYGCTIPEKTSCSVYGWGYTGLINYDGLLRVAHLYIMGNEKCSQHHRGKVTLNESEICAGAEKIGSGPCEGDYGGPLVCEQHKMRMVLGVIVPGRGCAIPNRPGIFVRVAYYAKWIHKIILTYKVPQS
T5 sequence (Q9NR61 27-524): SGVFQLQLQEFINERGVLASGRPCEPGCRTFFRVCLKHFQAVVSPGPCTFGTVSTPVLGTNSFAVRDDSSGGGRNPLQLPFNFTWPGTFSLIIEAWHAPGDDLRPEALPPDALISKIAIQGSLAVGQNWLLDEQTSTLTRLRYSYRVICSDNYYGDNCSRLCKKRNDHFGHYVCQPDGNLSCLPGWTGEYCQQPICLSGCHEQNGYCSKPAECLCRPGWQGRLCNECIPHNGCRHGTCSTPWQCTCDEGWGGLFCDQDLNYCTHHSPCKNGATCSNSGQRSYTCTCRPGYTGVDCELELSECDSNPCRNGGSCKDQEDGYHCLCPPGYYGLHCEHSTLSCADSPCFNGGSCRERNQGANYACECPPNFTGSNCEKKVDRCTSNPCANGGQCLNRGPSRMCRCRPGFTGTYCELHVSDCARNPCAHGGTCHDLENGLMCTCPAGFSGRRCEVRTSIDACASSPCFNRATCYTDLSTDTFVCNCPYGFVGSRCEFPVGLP

Kd (PlGF [1])	EC50 (PlGF [2])	Kd (HGF [3])	EC50 (HGF [4])	Binder	other results
0.012 nM	0.12 nM			DVD260 PlGF arm (antibody, V domains shown, DVD-Ig outer) VH: QVQLQQSGAELVKPGASVKISCKASGYTFTDYYINWVKLAPGQGLEWIGWIYPGSGNTKYNEKFKGKATLTIDTSSSTAYMQLSSLTSEDTAVYFCVRDSPFFDYWGQGTLLTVSS VL: DIVLTQSPDSLAVSLGERVTMNCKSSQSLLNSGMRKSFLAWYQQKPGQSPKLLIYWASTRESGVPDRFTGSGSGTDFTLTISSVQAEDVAVYYCKQSYHLFTFGSGTKLEIKR	
0.367 nM	2 nM			DVD257 PlGF arm (antibody, V domains shown, DVD-Ig inner) VH: QVQLQQSGAELVKPGASVKISCKASGYTFTDYYINWVKLAPGQGLEWIGWIYPGSGNTKYNEKFKGKATLTIDTSSSTAYMQLSSLTSEDTAVYFCVRDSPFFDYWGQGTLLTVSS VL: DIVLTQSPDSLAVSLGERVTMNCKSSQSLLNSGMRKSFLAWYQQKPGQSPKLLIYWASTRESGVPDRFTGSGSGTDFTLTISSVQAEDVAVYYCKQSYHLFTFGSGTKLEIKR	
0.33 nM	1.3 nM			DVD259 PlGF arm (antibody, V domains shown, DVD-Ig inner) VH: QVQLQQSGAELVKPGASVKISCKASGYTFTDYYINWVKLAPGQGLEWIGWIYPGSGNTKYNEKFKGKATLTIDTSSSTAYMQLSSLTSEDTAVYFCVRDSPFFDYWGQGTLLTVSS VL: DIVLTQSPDSLAVSLGERVTMNCKSSQSLLNSGMRKSFLAWYQQKPGQSPKLLIYWASTRESGVPDRFTGSGSGTDFTLTISSVQAEDVAVYYCKQSYHLFTFGSGTKLEIKR	
< 0.254 nM	0.08 nM			DVD258 PlGF arm (antibody, V domains shown, DVD-Ig outer) VH: QVQLQQSGAELVKPGASVKISCKASGYTFTDYYINWVKLAPGQGLEWIGWIYPGSGNTKYNEKFKGKATLTIDTSSSTAYMQLSSLTSEDTAVYFCVRDSPFFDYWGQGTLLTVSS VL: DIVLTQSPDSLAVSLGERVTMNCKSSQSLLNSGMRKSFLAWYQQKPGQSPKLLIYWASTRESGVPDRFTGSGSGTDFTLTISSVQAEDVAVYYCKQSYHLFTFGSGTKLEIKR	

More lines, now with the values behind:

Binder	Kd (PlGF [1])	EC50 (PlGF [2])	Kd (HGF [3])	EC50 (HGF [4])	other results
AB047 (antibody, V domains shown) VH: QVQLQQSGAELVKPGASVKISCKASGYTFTDYYINWVKLAPGQGLEWIGWIYPGSGNTKYNEKFKGKATLTIDTSSSTAYMQLSSLTSEDTAVYFCVRDSPFFDYWGQGTLLTVSS VL: DIVLTQSPDSLAVSLGERVTMNCKSSQSLLNSGMRKSFLAWYQQKPGQSPKLLIYWASTRESGVPDRFTGSGSGTDFTLTISSVQAEDVAVYYCKQSYHLFTFGSGTKLEIKR	0.0285 nM and 0.0284 nM	0.2 nM			
DVD033 HGF arm (antibody, V domains shown, DVD-Ig inner) VH: QVQLVESGGGLVKPGGSLRLSCAASGFTFSDYYMSWIRQAPGKGLEWVSYISSSGSTIYYADSVKGRFTISRDNAKNSLYLQMNSLRAEDTAVYYCARDEYNSGWYVLFDYWGQGTLVTVSS VL: DIQMTQSPSSVSASVGDRVTITCRASQGISSWLAWYQQKPGKAPNLLIYEASSLQSGVPSRFGGSGSGTDFTLTISSLQPEDFATYYCQQANGFPWTFGQGTKVEIKR			0.31 nM	11.9 nM	IC50 (HGF [5]): 8.7 nM
DVD046 HGF arm (antibody, V domains shown, DVD-Ig outer) VH: QVQLVESGGGLVKPGGSLRLSCAASGFTFSDYYMSWIRQAPGKGLEWVSYISSSGSTIYYADSVKGRFTISRDNAKNSLYLQMNSLRAEDTAVYYCARDEYNSGWYVLFDYWGQGTLVTVSS VL: DIQMTQSPSSVSASVGDRVTITCRASQGISSWLAWYQQKPGKAPNLLIYEASSLQSGVPSRFGGSGSGTDFTLTISSLQPEDFATYYCQQANGFPWTFGQGTKVEIKR			< 0.0236 nM	0.5 nM	
AB012 (antibody, V domains shown) VH: QVQLVESGGGLVKPGGSLRLSCAASGFTFSDYYMSWIRQAPGKGLEWVSYISSSGSTIYYADSVKGRFTISRDNAKNSLYLQMNSLRAEDTAVYYCARDEYNSGWYVLFDYWGQGTLVTVSS VL: DIQMTQSPSSVSASVGDRVTITCRASQGISSWLAWYQQKPGKAPNLLIYEASSLQSGVPSRFGGSGSGTDFTLTISSLQPEDFATYYCQQANGFPWTFGQGTKVEIKR			< 0.0284 nM	0.19 nM and 0.22 nM	IC50 (HGF [5]): 0.18 nM
DVD026 HGF arm (antibody, V domains shown, DVD-Ig outer) VH: QVQLVESGGGLVKPGGSLRLSCAASGFTFSDYYMSWIRQAPGKGLEWVSYISSSGSTIYYADSVKGRFTISRDNAKNSLYLQMNSLRAEDTAVYYCARDEYNSGWYVLFDYWGQGTLVTVSS VL: DIQMTQSPSSVSASVGDRVTITCRASQGISSWLAWYQQKPGKAPNLLIYEASSLQSGVPSRFGGSGSGTDFTLTISSLQPEDFATYYCQQANGFPWTFGQGTKVEIKR			0.0159 nM	0.33 nM	
DVD034 HGF arm (antibody, V domains shown, DVD-Ig outer) VH: QVQLVESGGGLVKPGGSLRLSCAASGFTFSDYYMSWIRQAPGKGLEWVSYISSSGSTIYYADSVKGRFTISRDNAKNSLYLQMNSLRAEDTAVYYCARDEYNSGWYVLFDYWGQGTLVTVSS VL: DIQMTQSPSSVSASVGDRVTITCRASQGISSWLAWYQQKPGKAPNLLIYEASSLQSGVPSRFGGSGSGTDFTLTISSLQPEDFATYYCQQANGFPWTFGQGTKVEIKR			0.0215 nM	0.27 nM	IC50 (HGF [5]): 0.34 nM
DVD025 HGF arm (antibody, V domains shown, DVD-Ig inner) VH: QVQLVESGGGLVKPGGSLRLSCAASGFTFSDYYMSWIRQAPGKGLEWVSYISSSGSTIYYADSVKGRFTISRDNAKNSLYLQMNSLRAEDTAVYYCARDEYNSGWYVLFDYWGQGTLVTVSS VL: DIQMTQSPSSVSASVGDRVTITCRASQGISSWLAWYQQKPGKAPNLLIYEASSLQSGVPSRFGGSGSGTDFTLTISSLQPEDFATYYCQQANGFPWTFGQGTKVEIKR			0.746 nM	251 nM	IC50 (HGF [5]): > 100 nM
DVD041 IGF1,2 arm (antibody, V domains shown, DVD-Ig inner) VH: QVQLVQSGAEVKKPGASVKVSCKASGYTFTSYDINWVRQATGQGLEWMGWMNPNSGNTGYAQKFQGRVTMTRNTSISTAYMELSSLRSEDTAVYYCARDPYYYYYGMDVWGQGTTVTVSS VL: QSVLTQPPSVSAAPGQKVTISCSGSSSNIENNHVSWYQQLPGTAPKLLIYDNNKRPSGIPDRFSGSKSGTSATLGITGLQTGDEADYYCETWDTSLSAGRVFGGGTKLTVLG					Kd (IGF2 [6]): < 0.0124 nM; EC50 (IGF1 [7]): 381 nM; EC50 (IGF2 [8]): 7340 nM; EC50 (IGF2 [9]): 7340 nM; EC50 (IGF1 [10]): 381 nM
DVD042 IGF1,2 arm (antibody, V domains shown, DVD-Ig outer) VH: QVQLVQSGAEVKKPGASVKVSCKASGYTFTSYDINWVRQATGQGLEWMGWMNPNSGNTGYAQKFQGRVTMTRNTSISTAYMELSSLRSEDTAVYYCARDPYYYYYGMDVWGQGTTVTVSS VL: QSVLTQPPSVSAAPGQKVTISCSGSSSNIENNHVSWYQQLPGTAPKLLIYDNNKRPSGIPDRFSGSKSGTSATLGITGLQTGDEADYYCETWDTSLSAGRVFGGGTKLTVLG					Kd (IGF2 [6]): 0.000998 nM; EC50 (IGF1 [7]): 2.54 nM; EC50 (IGF2 [8]): 17.6 nM; EC50 (IGF2 [9]): 17.6 nM; EC50 (IGF1 [10]): 2.5 nM
DVD300 ErbB3 arm (antibody, V domains shown, DVD-Ig inner) VH: QVQLQQWGAGLLKPSETLSLTCAVYGGSFSGYYWSWIRQPPGKGLEWIGEINHSGSTNYNPSLKSRVTISVETSKNQFSLKLSSVTAADTAVYYCARDKWTWYFDLWGRGTLVTVSS VL: not shown					EC50 (ErbB3): 7630 nM
DVD258 DLL4 arm (antibody, DVD-Ig inner) chain 1: EVQLVESGGGLVQPGGSLRLSCAASGFTFTDNWISWVRQAPGKGLEWVGYISPNSGFTYYADSVKGRFTISADTSKNTAYLQMNSLRAEDTAVYYCARDNFGGYFDYWGQGTLVTVSS chain 2: DIQMTQSPSSLSASVGDRVTITCRASQDVSTAVAWYQQKPGKAPKLLIYSASFLYSGVPSRFSGSGSGTDFTLTISSLQPEDFATTYYCQQSYTGTVTFGQGTKVEIKR					EC50 (DLL4 [11]): 2.3 nM; IC50 (DLL4 [12]): 17.5 nM
